Binding result and Kd data for seven molecules are collected here from publication PMC6547421, “A unique exonuclease ExoG cleaves between RNA and DNA in mitochondrial DNA replication” (Nucleic Acids Research, 2019).

Data set [1] has as its target T1, ExoG-H140A (catalytically dead) (Homo sapiens, UniProt Q9Y2C4 42-368, H140A).
T1 sequence: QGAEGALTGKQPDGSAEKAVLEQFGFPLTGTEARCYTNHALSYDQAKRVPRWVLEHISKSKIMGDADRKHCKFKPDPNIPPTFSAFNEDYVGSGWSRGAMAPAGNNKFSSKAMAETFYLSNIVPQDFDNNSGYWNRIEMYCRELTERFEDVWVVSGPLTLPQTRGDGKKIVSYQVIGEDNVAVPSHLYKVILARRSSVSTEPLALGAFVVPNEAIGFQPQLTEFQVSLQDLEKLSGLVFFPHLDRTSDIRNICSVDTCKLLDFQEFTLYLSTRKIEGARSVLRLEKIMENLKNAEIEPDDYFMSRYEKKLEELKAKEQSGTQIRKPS
The experiment in a line: crystal structure (2.3 A); Mg2+; one duplex per protomer; FP: 10 nM FAM substrate, 10 mM HEPES pH 7.4, 150 mM NaCl, 2.5 mM MgCl2; temperature not stated. The settings on record: protein: recombinant; tags: N-terminal His; chain copies: 2; blunt, self-complementary, 2 copies of strand.

Data set [2] deals with T1, ExoG-H140A (catalytically dead). The experiment in a line: crystal structure (3.0 A); Mg2+; one duplex per protomer; FP: 10 nM FAM substrate, 10 mM HEPES pH 7.4, 150 mM NaCl, 2.5 mM MgCl2; temperature not stated. Particulars: protein: recombinant; tags: N-terminal His; chain copies: 2; 12-bp duplex.
Data set [3] shares this target. The experiment in a line: crystal structure (2.8 A); Mg2+; one duplex per protomer; FP: 10 nM FAM substrate, 10 mM HEPES pH 7.4, 150 mM NaCl, 2.5 mM MgCl2; temperature not stated. Particulars: protein: recombinant; tags: N-terminal His; chain copies: 2; 12-bp duplex.
Data set [4] deals with the molecule itself. The experiment in a line: crystal structure; ExoG-H140A co-crystallised with a 12-bp dsDNA, an RNA/DNA hybrid duplex or an R2-DNA/DNA chimeric duplex (protein to substrate 1:1.2, 2 mM MgCl2), hanging drop vapor diffusion at 4°C; ExoG dimer in the asymmetric unit, each protomer bound to one duplex.
The target in a further data set is T2, ExoG-H140A/F168A (Homo sapiens, UniProt Q9Y2C4 42-368, H140A;F168A).
T2 sequence: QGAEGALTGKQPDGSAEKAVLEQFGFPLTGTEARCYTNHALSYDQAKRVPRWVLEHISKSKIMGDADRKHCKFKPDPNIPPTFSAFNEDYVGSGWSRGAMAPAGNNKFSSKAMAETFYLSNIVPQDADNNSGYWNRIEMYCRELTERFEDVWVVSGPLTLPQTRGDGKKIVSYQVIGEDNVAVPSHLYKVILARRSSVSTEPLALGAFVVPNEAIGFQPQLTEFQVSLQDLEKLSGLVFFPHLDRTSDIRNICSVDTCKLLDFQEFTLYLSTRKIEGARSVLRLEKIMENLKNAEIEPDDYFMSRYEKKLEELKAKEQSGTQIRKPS
The experiment in a line: fluorescence polarization; 2.5 mM Mg2+; FP: 10 nM FAM substrate, 10 mM HEPES pH 7.4, 150 mM NaCl, 2.5 mM MgCl2; temperature not stated. The settings on record: protein: recombinant; tags: N-terminal His; chain copies: 2; label: 3'-FAM strand 1; 5'-biotin strand 2; 20-bp duplex, 26-nt 3' overhang on strand 2. For orientation: Fluorescence polarisation rises when a labelled molecule tumbles more slowly, as on binding a larger partner.

In data set [5] the target is T1, ExoG-H140A (catalytically dead). The description is as above. Particulars: protein: recombinant; tags: N-terminal His; chain copies: 2; label: 3'-FAM strand 1; 5'-biotin strand 2; 20-bp duplex, 26-nt 3' overhang on strand 2.
The next data set deals with T3, ExoG-H140A/N176A (Homo sapiens, UniProt Q9Y2C4 42-368, H140A;N176A).
T3 sequence: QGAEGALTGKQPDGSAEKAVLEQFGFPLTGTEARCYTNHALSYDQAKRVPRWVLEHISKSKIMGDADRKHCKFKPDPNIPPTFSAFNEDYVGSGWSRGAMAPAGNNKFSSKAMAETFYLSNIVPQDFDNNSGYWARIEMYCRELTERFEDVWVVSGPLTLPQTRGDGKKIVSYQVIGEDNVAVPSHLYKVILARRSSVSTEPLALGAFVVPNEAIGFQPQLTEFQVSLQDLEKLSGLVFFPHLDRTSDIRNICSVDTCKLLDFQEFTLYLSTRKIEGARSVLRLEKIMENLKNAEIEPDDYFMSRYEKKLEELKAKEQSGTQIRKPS
The data set is described as above. The settings on record: protein: recombinant; tags: N-terminal His; chain copies: 2; label: 3'-FAM strand 1; 5'-biotin strand 2; 20-bp duplex, 26-nt 3' overhang on strand 2.

B1: 12-bp palindromic DNA (crystal) (dsDNA)
DNA 1: CGGGATATCCCG
DNA 2: CGGGATATCCCG
modifications: 5'-OH and 3'-OH
Turning to B1, the binding result in data set [1] is reported as “binds”.

B2: 12-nt R2-DNA/DNA chimeric duplex (crystal) (mixed)
DNA 1: CGGGATGTCACG
DNA 2: CGTGACATCCCG
modifications: two 5'-end ribonucleotides and 5'-phosphate on scissile strand; complement DNA 5'-OH
For B2, the binding result in data set [2] is recorded as “binds”.

B3: 12-bp RNA/DNA hybrid (crystal) (DNA:RNA)
RNA: CGGGAUGUCACG
DNA: CGTGACATCCCG
modifications: 5'-phosphate on RNA strand; DNA strand 5'-OH
Take B3: the binding result in data set [3] is “binds”.

B4: human ExoG-H140A (catalytically dead mutant of Exonuclease G, without the N-terminal MLS) (enzyme, UniProt Q9Y2C4 42-368, looked up)
chain: QGAEGALTGKQPDGSAEKAVLEQFGFPLTGTEARCYTNHALSYDQAKRVPRWVLEHISKSKIMGDADRKHCKFKPDPNIPPTFSAFNEDYVGSGWSRGAMAPAGNNKFSSKAMAETFYLSNIVPQDFDNNSGYWNRIEMYCRELTERFEDVWVVSGPLTLPQTRGDGKKIVSYQVIGEDNVAVPSHLYKVILARRSSVSTEPLALGAFVVPNEAIGFQPQLTEFQVSLQDLEKLSGLVFFPHLDRTSDIRNICSVDTCKLLDFQEFTLYLSTRKIEGARSVLRLEKIMENLKNAEIEPDDYFMSRYEKKLEELKAKEQSGTQIRKPS
notes: source: E. coli Rosetta 2 (DE3) pLysS, purified (HisTrap HP, Superdex 200 gel filtration)
For B4, the binding result in data set [4] is given as “binds”.

B5: R2-DNA/DNA (mixed)
DNA 1: GCTTAACGCTGACTCGCTAC
DNA 2: GTAGCGAGTCAGCGTTAAGCACTATCATAGCCATCTGCCATTACTG
modifications: strand 1 nt 1-2 (GC) are ribonucleotides, rest DNA; 5'-phosphate on strand 1
Turning to B5, the Kd with ExoG-H140A/F168A amounted to 3.15 ± 0.259 µM; in data set [5], 1030 ± 86 nM; with ExoG-H140A/N176A, 930 ± 63 nM.

B6: DNA/DNA (dsDNA)
DNA 1: GCTTAACGCTGACTCGCTAC
DNA 2: GTAGCGAGTCAGCGTTAAGCACTATCATAGCCATCTGCCATTACTG
modifications: 5'-phosphate on strand 1
As to B6, the Kd came out at 3.93 ± 0.188 µM in the data set with ExoG-H140A/F168A, 1320 ± 79 nM in data set [5] and 950 ± 63 nM in the data set with ExoG-H140A/N176A.

B7: RNA/DNA (DNA:RNA)
RNA: GCUUAACGCUGACUCGCUAC
DNA: GTAGCGAGTCAGCGTTAAGCACTATCATAGCCATCTGCCATTACTG
modifications: strand 1 RNA with 5'-phosphate; strand 2 DNA
Take B7: the figures for the Kd (with ExoG-H140A/F168A; in data set [5]; in the data set with ExoG-H140A/N176A) were 0.25 ± 0.014 µM, 190 ± 10 nM and 120 ± 8 nM, respectively.

As a reminder, the Kd is the constant that tells how readily two partners part at equilibrium.
